Values quoted from earlier work in article PMC10348426.
pKd: −log10 of the molar value. Where two headings read alike, the source gives them in different places.

Tests used:
[1] = biological target: FER ECD (Arabidopsis thaliana) (UniProt Q9SCZ4); experiment: MST
[2] = biological target: ER ECD (Arabidopsis thaliana) (UniProt Q42371)
[3] = biological target: ER ECD (Arabidopsis thaliana) (UniProt Q42371); remark: listed apart in the source

Chain of UniProt Q42371 (Q42371 25-580): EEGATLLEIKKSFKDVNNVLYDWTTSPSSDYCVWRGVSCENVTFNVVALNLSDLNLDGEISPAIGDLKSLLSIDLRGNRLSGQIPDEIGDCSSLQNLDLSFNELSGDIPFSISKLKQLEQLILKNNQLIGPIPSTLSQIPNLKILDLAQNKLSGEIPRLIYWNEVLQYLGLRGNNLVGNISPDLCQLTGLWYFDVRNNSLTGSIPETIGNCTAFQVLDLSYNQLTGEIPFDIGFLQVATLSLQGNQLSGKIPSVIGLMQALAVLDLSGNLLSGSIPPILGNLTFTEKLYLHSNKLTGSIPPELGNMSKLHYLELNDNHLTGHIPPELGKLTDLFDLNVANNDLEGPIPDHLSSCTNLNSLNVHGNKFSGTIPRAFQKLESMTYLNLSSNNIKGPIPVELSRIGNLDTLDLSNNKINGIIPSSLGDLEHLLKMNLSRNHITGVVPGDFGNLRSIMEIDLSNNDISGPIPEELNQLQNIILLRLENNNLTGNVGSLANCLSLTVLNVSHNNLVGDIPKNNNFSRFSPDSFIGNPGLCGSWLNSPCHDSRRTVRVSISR
Chain of UniProt Q9SCZ4 (Q9SCZ4 28-447): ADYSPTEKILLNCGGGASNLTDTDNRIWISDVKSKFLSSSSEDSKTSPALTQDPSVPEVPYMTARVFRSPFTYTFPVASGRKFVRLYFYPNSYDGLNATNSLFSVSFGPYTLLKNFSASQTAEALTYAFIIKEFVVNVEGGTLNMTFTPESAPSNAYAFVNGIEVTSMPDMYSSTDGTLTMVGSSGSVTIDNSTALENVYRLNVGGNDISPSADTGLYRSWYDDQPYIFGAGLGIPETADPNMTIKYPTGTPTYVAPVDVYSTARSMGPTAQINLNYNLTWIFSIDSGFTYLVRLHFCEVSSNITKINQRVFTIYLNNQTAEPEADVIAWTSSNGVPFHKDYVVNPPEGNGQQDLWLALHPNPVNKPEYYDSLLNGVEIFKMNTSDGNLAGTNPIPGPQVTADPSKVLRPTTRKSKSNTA

RALF33 (from UniProt Q8L9P8)
pKd [1]: 6.79

STOMAGEN (from UniProt Q9SV72)
pKd [2]: 7.36

EPF2 (from UniProt Q8LC53)
pKd [3]: 7.23
